Experimental data: the supplement of paper PMC11208486

Columns and labels:
[1] = specific initial activity, cyclohex-2-enone reduction (U mg-1); higher = more active; details: co-solvent: methanol
Experimental: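 Specific initial activity of purified ene reductases with 10 mM cyclohex-2-enone and 0.2 mM NAD(P)H in 50 mM sodium phosphate pH 7.4 with 0-45% (v/v) ethanol or methanol, at set reaction temperatures of 25-45 °C. NAD(P)H depletion was followed at 340 nm for 480 s, in triplicate.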

[2] = melting temperature (ThermoFMN); higher = more thermostable
Experimental: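 Purified His-tagged ene reductases (1 mg/ml) in 50 mM sodium phosphate pH 7.4 with 0-30% (v/v) organic co-solvent. Melting temperature was measured by the ThermoFMN assay (FMN fluorescence, 20-90 °C at 1 °C/min, inflection point, triplicate). Specific initial activity was measured with 10 mM cyclohex-2-enone and 0.2 mM NAD(P)H (NADH for LacER) as A340 depletion, at room temperature (DMSO, 2-propanol, n-propanol) or 25 °C (EtOH, MeOH), in triplicate. The TsOYE Tm is above the 90 °C measurement range.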

MSFVKDFKPQALGDTNLFKPIKIGNNELLHRAVIPPLTRMRALHPGNIPNRDWAVEYYTQRAQRPGTMIITEGAFISPQAGGYDNAPGVWSEEQMVEWTKIFNAIHEKKSFVWVQLWVLGWAAFPDNLARDGLRYDSASDNVFMDAEQEAKAKKANNPQHSLTKDEIKQYIKEYVQAAKNSIAAGADGVEIHSANGYLLNQFLDPHSNTRTDEYGGSIENRARFTLEVVDALVEAIGHEKVGLRLSPYGVFNSMSGGAETGIVAQYAYVAGELEKRAKAGKRLAFVHLVEPRVTNPFLTEGEGEYEGGSNDFVYSIWKGPVIRAGNFALHPEVVREEVKDKRTLIGYGRFFISNPDLVDRLEKGLPLNKYDRDTFYQMSAHGYIDYPTYEEALKLGWDKK
[1]
Details	specific initial activity
co-solvent concentration (% v/v): 15, reaction temperature 35 °C	0.55
co-solvent concentration (% v/v): 15, reaction temperature 40 °C	0.09
co-solvent concentration (% v/v): 15, reaction temperature 45 °C	0.04
co-solvent concentration (% v/v): 20, reaction temperature 25 °C	0.37
co-solvent concentration (% v/v): 20, reaction temperature 30 °C	0.43
co-solvent concentration (% v/v): 20, reaction temperature 35 °C	0.4
co-solvent concentration (% v/v): 20, reaction temperature 40 °C	0.02
co-solvent concentration (% v/v): 20, reaction temperature 45 °C	0.01
co-solvent concentration (% v/v): 25, reaction temperature 25 °C	0.31
co-solvent concentration (% v/v): 25, reaction temperature 30 °C	0.3
co-solvent concentration (% v/v): 25, reaction temperature 35 °C	0.06
co-solvent concentration (% v/v): 25, reaction temperature 40 °C	0.02
co-solvent concentration (% v/v): 25, reaction temperature 45 °C	0.02
co-solvent concentration (% v/v): 30, reaction temperature 25 °C	0.19
co-solvent concentration (% v/v): 30, reaction temperature 30 °C	0.14
co-solvent concentration (% v/v): 30, reaction temperature 35 °C	0.01
co-solvent concentration (% v/v): 30, reaction temperature 40 °C	0.01
co-solvent concentration (% v/v): 30, reaction temperature 45 °C	0
co-solvent concentration (% v/v): 35, reaction temperature 25 °C	0.03
co-solvent concentration (% v/v): 35, reaction temperature 30 °C	0.04
co-solvent concentration (% v/v): 35, reaction temperature 35 °C	0.01
co-solvent concentration (% v/v): 35, reaction temperature 40 °C	0
co-solvent concentration (% v/v): 35, reaction temperature 45 °C	0
co-solvent concentration (% v/v): 40, reaction temperature 25 °C	0.02
co-solvent concentration (% v/v): 40, reaction temperature 30 °C	0.03
co-solvent concentration (% v/v): 40, reaction temperature 35 °C	0
co-solvent concentration (% v/v): 40, reaction temperature 40 °C	0.01
co-solvent concentration (% v/v): 40, reaction temperature 45 °C	0.01
co-solvent concentration (% v/v): 45, reaction temperature 25 °C	0.01
co-solvent concentration (% v/v): 45, reaction temperature 30 °C	0.03
co-solvent concentration (% v/v): 45, reaction temperature 35 °C	0.01
co-solvent concentration (% v/v): 45, reaction temperature 40 °C	0.01
co-solvent concentration (% v/v): 45, reaction temperature 45 °C	0

melting temperature [°C], [2]
Details	co-solvent concentration (% v/v): 0	co-solvent concentration (% v/v): 5	co-solvent concentration (% v/v): 10	co-solvent concentration (% v/v): 15	co-solvent concentration (% v/v): 20	co-solvent concentration (% v/v): 25	co-solvent concentration (% v/v): 30
co-solvent: 2-propanol	45	44	41.3	37.3	34.7	33.7	28.3
co-solvent: dimethyl sulfoxide	45	44.3	43.3	42	40.7	39.3	37.3
co-solvent: ethanol	45.3	43.3	42	39.7	37.7	35.3	34.3
co-solvent: methanol	46	45	43	42	40.3	37.7	34.7
co-solvent: n-propanol	45	40.3	34.7	31.7	31	30.3	27.3
